Experimental data: publication PMC9262799, “The first step into phenolic metabolism in the hornwort Anthoceros agrestis: molecular and biochemical characterization of two phenylalanine ammonia-lyase isoforms” (Planta, 2022)

Columns and labels:
Type in all cases: biochemical, Anthoceros agrestis
N[C@@H](Cc1ccccc1)C(=O)O [1] = system: T1, N[C@@H](Cc1ccccc1)C(=O)O; assay: HPLC of t-cinnamic acid formed, Michaelis-Menten fit; conditions: boric acid/sodium tetraborate buffer pH 8.8, 36 °C, 10 min, 1-500 µM Phe
T1 construct: full-length, 752 residues (81,895 Da), N-terminal 6xHis-tag kept (84,058 Da with tag), pET15b, E. coli SoluBL21, Ni-NTA; cDNA from suspension culture; PALs mostly homotetramers, oligomer not measured here
Source text: HPLC of t-cinnamic acid formed, Michaelis-Menten fit on AaPAL1

[2] = system: T2, N[C@@H](Cc1ccc(O)cc1)C(=O)O; assay: HPLC of 4-coumaric acid formed, Michaelis-Menten fit; conditions: boric acid/sodium tetraborate buffer pH 8.8, 36 °C, 10 min, 0-9.6 mM Tyr
T2 construct: full-length, 752 residues (81,895 Da), N-terminal 6xHis-tag kept (84,058 Da with tag), pET15b, E. coli SoluBL21, Ni-NTA; cDNA from suspension culture; PALs mostly homotetramers, oligomer not measured here
Source text: HPLC of 4-coumaric acid formed, Michaelis-Menten fit on AaPAL1

[3] = system: T3, N[C@@H](Cc1ccc(O)cc1)C(=O)O; assay: as above; conditions: boric acid/sodium tetraborate buffer pH 8.8, 36 °C, 15 min, 0-9.6 mM Tyr
T3 construct: full-length, 753 residues (81,704 Da), N-terminal 6xHis-tag kept (83,867 Da with tag), pET15b, E. coli SoluBL21, Ni-NTA; cDNA from suspension culture; PALs mostly homotetramers, oligomer not measured here
Source text: HPLC of 4-coumaric acid formed, Michaelis-Menten fit on AaPAL2

N[C@@H](Cc1ccccc1)C(=O)O [4] = system: T4, N[C@@H](Cc1ccccc1)C(=O)O; assay: HPLC of t-cinnamic acid formed, Michaelis-Menten fit; conditions: boric acid/sodium tetraborate buffer pH 8.8, 36 °C, 4 min, 1-500 µM Phe
T4 construct: full-length, 753 residues (81,704 Da), N-terminal 6xHis-tag kept (83,867 Da with tag), pET15b, E. coli SoluBL21, Ni-NTA; cDNA from suspension culture; PALs mostly homotetramers, oligomer not measured here
Source text: HPLC of t-cinnamic acid formed, Michaelis-Menten fit on AaPAL2

AaPAL2 (Anthoceros agrestis), sequence (chain, as listed by the source): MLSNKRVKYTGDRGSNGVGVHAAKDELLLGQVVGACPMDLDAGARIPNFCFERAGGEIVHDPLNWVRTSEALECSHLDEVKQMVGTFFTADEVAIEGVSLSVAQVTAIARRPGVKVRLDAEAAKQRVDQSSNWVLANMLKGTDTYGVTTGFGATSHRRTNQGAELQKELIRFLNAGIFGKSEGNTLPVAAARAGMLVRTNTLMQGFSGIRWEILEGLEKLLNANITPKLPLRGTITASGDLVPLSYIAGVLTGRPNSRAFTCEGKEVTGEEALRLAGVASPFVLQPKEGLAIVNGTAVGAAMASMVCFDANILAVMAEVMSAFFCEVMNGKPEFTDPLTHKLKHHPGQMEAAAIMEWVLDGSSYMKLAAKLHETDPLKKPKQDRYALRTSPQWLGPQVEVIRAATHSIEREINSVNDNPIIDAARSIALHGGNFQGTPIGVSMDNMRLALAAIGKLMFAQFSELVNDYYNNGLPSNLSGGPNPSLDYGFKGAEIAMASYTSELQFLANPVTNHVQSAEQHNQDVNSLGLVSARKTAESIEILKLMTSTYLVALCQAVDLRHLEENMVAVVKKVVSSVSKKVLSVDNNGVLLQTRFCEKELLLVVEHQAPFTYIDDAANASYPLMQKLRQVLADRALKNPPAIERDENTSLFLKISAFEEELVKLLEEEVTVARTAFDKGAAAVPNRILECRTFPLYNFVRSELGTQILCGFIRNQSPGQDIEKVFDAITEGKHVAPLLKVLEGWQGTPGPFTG
AaPAL1 (Anthoceros agrestis), sequence (chain, as listed by the source): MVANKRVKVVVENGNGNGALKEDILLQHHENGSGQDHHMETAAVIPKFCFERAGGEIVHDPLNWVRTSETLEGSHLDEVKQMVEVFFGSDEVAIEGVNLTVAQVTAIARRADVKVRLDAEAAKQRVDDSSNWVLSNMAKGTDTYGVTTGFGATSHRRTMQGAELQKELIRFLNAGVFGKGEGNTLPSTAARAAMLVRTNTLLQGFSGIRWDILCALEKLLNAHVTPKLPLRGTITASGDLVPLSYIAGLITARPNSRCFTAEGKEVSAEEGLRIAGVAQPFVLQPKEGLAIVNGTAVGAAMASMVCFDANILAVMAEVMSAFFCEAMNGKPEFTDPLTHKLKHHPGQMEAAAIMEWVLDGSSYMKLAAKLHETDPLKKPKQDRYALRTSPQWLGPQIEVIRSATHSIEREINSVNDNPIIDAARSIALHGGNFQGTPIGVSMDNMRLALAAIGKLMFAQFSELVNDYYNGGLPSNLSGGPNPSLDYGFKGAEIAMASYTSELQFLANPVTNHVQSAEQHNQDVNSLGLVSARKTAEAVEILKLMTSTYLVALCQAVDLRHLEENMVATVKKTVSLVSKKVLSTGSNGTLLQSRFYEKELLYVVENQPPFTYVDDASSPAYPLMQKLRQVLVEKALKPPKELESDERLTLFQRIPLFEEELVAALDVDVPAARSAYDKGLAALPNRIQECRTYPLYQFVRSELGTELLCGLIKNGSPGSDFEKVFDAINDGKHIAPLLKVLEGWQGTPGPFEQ

AaPAL1 (Anthoceros agrestis)
Km (N[C@@H](Cc1ccccc1)C(=O)O [1]): 39 ± 15 µM
Vmax (N[C@@H](Cc1ccccc1)C(=O)O [1]): 0.252 µmol/min/mg
kcat (N[C@@H](Cc1ccccc1)C(=O)O [1]): 0.353 s⁻¹
kcat/Km (N[C@@H](Cc1ccccc1)C(=O)O [1]): 9050 M⁻¹ s⁻¹
Km [2]: 3308 ± 987 µM
Vmax [2]: 0.058 µmol/min/mg
kcat [2]: 0.081 s⁻¹
kcat/Km [2]: 24.5 M⁻¹ s⁻¹

AaPAL2 (Anthoceros agrestis)
Km [3]: 3526 ± 617 µM
Vmax [3]: 0.0296 µmol/min/mg
kcat [3]: 0.041 s⁻¹
kcat/Km [3]: 11.6 M⁻¹ s⁻¹
Km (N[C@@H](Cc1ccccc1)C(=O)O [4]): 18 ± 4 µM
Vmax (N[C@@H](Cc1ccccc1)C(=O)O [4]): 0.206 µmol/min/mg
kcat (N[C@@H](Cc1ccccc1)C(=O)O [4]): 0.288 s⁻¹
kcat/Km (N[C@@H](Cc1ccccc1)C(=O)O [4]): 16000 M⁻¹ s⁻¹
